Laboratory results as given in paper doi:10.1101/2021.05.05.442785 (bioRxiv, 2021).

B1: S-adenosylmethionine lyase (SAMase) of bacteriophage T3, C-terminal His-tagged (enzyme, UniProt P07693 1-152, looked up)
chain: MIFTKEPAHVFYVLVSAFRSNLCDEVNMSRHRHMVSTLRAAPGLYGSVESTDLTGCYREAISSAPTEEKTVRVRCKDKAQALNVARLACNEWEQDCVLVYKSQTHTAGLVYAKGIDGYKAERLPGSFQEVPKGAPLQGCFTIDEFGRRWQVQ
B2: E. coli methionine S-adenosyltransferase (MAT), recombinant (enzyme)
chain: AKHLFTSESVSEGHPDKIADQISDAVLDAILEQDPKARVACETYVKTGMVLVGGEITTSAWVDIEEITRNTVREIGYVHSDMGFDANSCAVLSAIGKQSPDINQGVDRADPLEQGAGDQGLMFGYATNETDVLMPAPITYAHRLVQRQAEVRKNGTLPWLRPDAKSQVTFQYDDGKIVGIDAVVLSTQHSEEIDQKSLQEAVMEEIIKPILPAEWLTSATKFFINPTGRFVIGGPMGDCGLTGRKIIVDTYGGMARHGGGAFSGKDPSKVDRSAAYAARYVAKNIVAAGLADRCEIQVSYAIGVAEPTSIMVETFGTEKVPSEQLTLLVREFFDLRPYGLIQMLDLLHPIYKETAAYGHFGREHFPWEKTDKAQLLRDAAGLK

Experiments:
[1] = target: B2; test: cryo-EM structure
cryo-EM structure = target: the molecule itself; test: cryo-EM structure

Row | Binder | binding result [1] | stoichiometry N (cryo-EM structure)
1 | B1 | binds | 2
2 | B2 |  | 4
